Measurements taken from the supplement of paper PMC10567573.

B1: PDS5B (parent)
chain: IYKKYALQSAAGKDAAKQIAWIKD

Variants of: B1
Assay: protein stability index of a GFP-peptide fusion (GPS, HEK-293T) (PSI 1-6); higher = more stable
Conditions: c terminus: a fixed tail appended
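Note: lentivirally expressed fusions sorted by FACS into six bins by GFP to DsRed ratio, PSI derived from sequencing read proportions per bin multiplied by bin number.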

Protein stability index: each site, then its substitutions
A11: T 2.15 | C 1.58 | I 1.73 | H 1.75 | P 2.27 | E 2.43 | V 2.29 | R 1.75 | K 2.5 | G 2.65
K3: W 2.95 | P 2.65 | N 2.27 | D 3.43 | L 2.4 | S 2.48 | T 2.15 | H 2.36 | R 2.56 | G 2.24 | Q 2.33 | I 2.93 | E 2.88
Y5: A 2.78 | C 1.75 | N 2.93 | Q 2.99 | V 2.89 | F 1.92 | D 3.79 | R 2.43 | W 1.98 | L 2.36 | M 1.91 | H 2.46 | E 3.09 | T 3.36 | K 2.93
A10: E 2.38 | I 1.89 | L 2.32 | T 2.42 | G 1.71 | F 1.37 | N 2.19 | Y 1.75 | K 2 | P 2.26 | V 2.1 | R 1.37 | W 1.77 | C 1.72
W21: A 3.22 | Y 2.42 | H 2.75 | C 3.02 | N 3.83 | E 2.91 | V 2.72 | S 3.19 | P 3.57 | M 3.2 | G 2.92 | Q 3.09 | D 3.05 | I 2.88 | K 2.65
I22: L 2.33 | N 3.26 | D 3.78 | H 3.12 | S 3.09 | Q 3.27 | P 3.1 | V 3.21 | G 2.8 | K 3.21 | E 4.49 | T 3.31 | F 2.29 | W 2.28
K17: Q 2.19 | V 2.12 | C 2.04 | L 2.07 | Y 1.66 | H 2.89 | W 1.63 | D 3.27 | G 2.35 | N 2.51 | R 2.67 | S 2.67 | M 1.38 | P 2.51 | A 2.48
I19: F 2.29 | L 1.81 | C 2.38 | R 2.38 | G 3.46 | S 2.6 | D 3.79 | Y 1.99 | K 3.01 | P 3.11 | N 3.59 | T 2.77 | W 1.93 | A 2.48
A20: H 2.07 | G 2.25 | E 2.66 | Y 2.22 | F 1.95 | P 2.66 | R 1.84 | T 2.23 | N 2.68 | M 2.02 | L 1.89 | K 2.26 | I 2.31
A15: G 2.9 | Y 1.45 | C 1.89 | V 1.71 | R 2.09 | L 2.64 | Q 2.29 | K 2.76 | I 1.69 | D 2.35 | S 2.73 | M 1.83 | H 2.22 | F 1.75
Q18: K 2.6 | R 2.24 | C 1.75 | E 2.45 | M 2.38 | Y 1.33 | T 1.6 | S 2.58 | D 2.83 | L 1.99 | V 2.07 | W 2.18 | H 2.43 | P 2.37 | I 2.4 | A 2.06 | F 2.33
K4: Q 2.6 | A 2.13 | Y 1.84 | F 2.32 | H 2.39 | E 2.68 | R 2.25 | L 1.75 | S 2.23 | C 1.61 | P 2.71 | N 2.68 | M 1.95
